What follows are substances tested against HLA-A*02:01 (Homo sapiens, UniProt P04439, D140Y/D185E/D98H/E176V/E277Q/G131W/G231S/I119V/I121R/I166T/I218V/L300P/L318F/N151K/N90K/P208A/P217A/Q86G/Q94H/R138H/R169H/T345S) (assay: MHC binding assay (UV-ligand exchange, beta2m ELISA, peptide exchange yield)). Conditions: binding to HLA-A*02:01 ranged by peptide exchange yield, β2m ELISA.
Source text: Candidate peptides for T cell based therapies according to the present invention were further tested for their MHC binding capacity (affinity). The individual peptide-MHC complexes were produced by UV-ligand exchange, where a UV-sensitive peptide is cleaved upon UV-irradiation, and exchanged with the peptide of interest as analyzed. Only peptide candidates that can effectively bind and stabilize the peptide-receptive MHC molecules prevent dissociation of the MHC complexes. To determine the yield of the exchange reaction, an ELISA was performed based on the detection of the light chain (β2m) of stabilized MHC complexes. The assay was performed as generally described in Rodenko et al. (Rodenko et al., 2006).
96 well MAXISorp plates (NUNC) were coated over night with 2 ug/ml streptavidin in PBS at room temperature, washed 4× and blocked for 1 h at 37° C. in 2% BSA containing blocking buffer. Refolded HLA-A*02:01/MLA-001 monomers served as standards, covering the range of 15-500 ng/ml. Peptide-MHC monomers of the UV-exchange reaction were diluted 100 fold in blocking buffer. Samples were incubated for 1 h at 37° C., washed four times, incubated with 2 ug/ml HRP conjugated anti-μ2m for 1h at 37° C., washed again and detected with TMB solution that is stopped with […]. Absorption was measured at 450 nm. Candidate peptides that show a high exchange yield (preferably higher than 50%, most preferred higher than 75%) are generally preferred for a generation and production of antibodies or fragments thereof, and/or T cell receptors or fragments thereof, as they show sufficient avidity to the MHC molecules and prevent dissociation of the MHC complexes.
MHC class I binding scores. Binding of HLA-class I restricted peptides to HLA-A*02:01 was ranged by peptide exchange yield: ≥10%=+; ≥20%=++; ≥50=+++; >75%=++++
For “1 (FVDTRTLL; listed as Homo sapiens) [compound 1]”, the “Peptide exchange (MHC class I binding score)” value (from here on “Peptide exchange”) was ““++” (≥20%=++)”. With “2 (FGYDGDFYRA; listed as Homo sapiens) [compound 2]” the “Peptide exchange” value was ““+++” (≥50=+++)”. For “3 (ILIGETIKI; listed as Homo sapiens) [compound 3]”, the “Peptide exchange” value was ““+++” (≥50=+++)”. With “4 (ALDPAAQAFLL; listed as Homo sapiens) [compound 4]” the “Peptide exchange” value was ““+++” (≥50=+++)”. “5 (ALLTGIISKA; listed as Homo sapiens) [compound 5]” was tested, and the “Peptide exchange” value was ““+++” (≥50=+++)”. In the case of “6 (ALTGIPLPLI; listed as Homo sapiens) [compound 6]”, the “Peptide exchange” value is reported as ““+++” (≥50=+++)”. “7 (ALVDIVRSL; listed as Homo sapiens) [compound 7]” was tested, and the “Peptide exchange” value was ““+++” (≥50=+++)”. In the case of “8 (ALYTGSALDFV; listed as Homo sapiens) [compound 8]”, the “Peptide exchange” value is reported as ““+++” (≥50=+++)”. In the case of “9 (QIIDAINKV; listed as Homo sapiens) [compound 9]”, the “Peptide exchange” value is reported as ““++” (≥20%=++)”. With “10 (VLLDKIKNL; listed as Homo sapiens) [compound 10]” the “Peptide exchange” value was ““++” (≥20%=++)”. With “11 (ALYYNPHLL; listed as Homo sapiens) [compound 11]” the “Peptide exchange” value was ““++” (≥20%=++)”. With “12 (AQYKFVYQV; listed as Homo sapiens) [compound 12]” the “Peptide exchange” value was ““+++” (≥50=+++)”. With “13 (FIDSSNPGL; listed as Homo sapiens) [compound 13]” the “Peptide exchange” value was ““++” (≥20%=++)”. In the case of “14 (FIIDNPQDLKV; listed as Homo sapiens) [compound 14]”, the “Peptide exchange” value is reported as ““+++” (≥50=+++)”. With “15 (FILANEHNV; listed as Homo sapiens) [compound 15]” the “Peptide exchange” value was ““+++” (≥50=+++)”. For “16 (GLIDYDTGI; listed as Homo sapiens) [compound 16]”, the “Peptide exchange” value was ““+++” (≥50=+++)”. For “17 (GLIDYDTGIRL; listed as Homo sapiens) [compound 17]”, the “Peptide exchange” value was ““+++” (≥50=+++)”. With “18 (ALFVRLLAL; listed as Homo sapiens) [compound 18]” the “Peptide exchange” value was ““++” (≥20%=++)”. With “19 (ALWHDAENQTVV; listed as Homo sapiens) [compound 19]” the “Peptide exchange” value was ““+++” (≥50=+++)”. “20 (GLIDIENPNRV; listed as Homo sapiens) [compound 20]” was tested, and the “Peptide exchange” value was ““+++” (≥50=+++)”. For “21 (GLVDGRDLVIV; listed as Homo sapiens) [compound 21]”, the “Peptide exchange” value was ““+++” (≥50=+++)”. With “22 (ILSTEIFGV; listed as Homo sapiens) [compound 22]” the “Peptide exchange” value was ““+++” (≥50=+++)”. For “23 (KLDSSGGAVQL; listed as Homo sapiens) [compound 23]”, the “Peptide exchange” value was ““++” (≥20%=++)”. In the case of “24 (KLSENAGIQSL; listed as Homo sapiens) [compound 24]”, the “Peptide exchange” value is reported as ““++” (≥20%=++)”. “25 (LINPNIATV; listed as Homo sapiens) [compound 25]” was tested, and the “Peptide exchange” value was ““++” (≥20%=++)”. “26 (SLYTALTEA; listed as Homo sapiens) [compound 26]” was tested, and the “Peptide exchange” value was ““+++” (≥50=+++)”. With “27 (TLLAHPVTL; listed as Homo sapiens) [compound 27]” the “Peptide exchange” value was ““+++” (≥50=+++)”. With “28 (VLDEFYSSL; listed as Homo sapiens) [compound 28]” the “Peptide exchange” value was ““+++” (≥50=+++)”. “29 (YILPFSEVL; listed as Homo sapiens) [compound 29]” was tested, and the “Peptide exchange” value was ““++++” (>75%=++++)”. With “30 (YIYKDTIQV; listed as Homo sapiens) [compound 30]” the “Peptide exchange” value was ““++” (≥20%=++)”. “31 (YLDSMYIML; listed as Homo sapiens) [compound 31]” was tested, and the “Peptide exchange” value was ““+++” (≥50=+++)”. In the case of “32 (YVDDGLISL; listed as Homo sapiens) [compound 32]”, the “Peptide exchange” value is reported as ““++” (≥20%=++)”. For “34 (FLEDDDIAAV; listed as Homo sapiens) [compound 34]”, the “Peptide exchange” value was ““++” (≥20%=++)”. For “35 (FLFPSQYVDV; listed as Homo sapiens) [compound 35]”, the “Peptide exchange” value was ““+++” (≥50=+++)”. With “36 (FLGDLSHLL; listed as Homo sapiens) [compound 36]” the “Peptide exchange” value was ““++” (≥20%=++)”. In the case of “37 (FLNPDEVHAI; listed as Homo sapiens) [compound 37]”, the “Peptide exchange” value is reported as ““++” (≥20%=++)”. “38 (FLTEAALGDA; listed as Homo sapiens) [compound 38]” was tested, and the “Peptide exchange” value was ““+++” (≥50=+++)”. With “39 (FLTPSIFII; listed as Homo sapiens) [compound 39]” the “Peptide exchange” value was ““++” (≥20%=++)”. With “40 (GLAPQIHDL; listed as Homo sapiens) [compound 40]” the “Peptide exchange” value was ““++” (≥20%=++)”. “41 (GLLAGNEKLTM; listed as Homo sapiens) [compound 41]” was tested, and the “Peptide exchange” value was ““++” (≥20%=++)”. With “42 (ILSDMRSQYEV; listed as Homo sapiens) [compound 42]” the “Peptide exchange” value was ““+++” (≥50=+++)”. In the case of “43 (HLGVKVFSV; listed as Homo sapiens) [compound 43]”, the “Peptide exchange” value is reported as ““++” (≥20%=++)”. “44 (ILAQVGFSV; listed as Homo sapiens) [compound 44]” was tested, and the “Peptide exchange” value was ““+++” (≥50=+++)”. With “45 (ILYSDDGQKWTV; listed as Homo sapiens) [compound 45]” the “Peptide exchange” value was ““+++” (≥50=+++)”. For “46 (TMVEHNYYV; listed as Homo sapiens) [compound 46]”, the “Peptide exchange” value was ““+++” (≥50=+++)”. For “47 (LIYKDLVSV; listed as Homo sapiens) [compound 47]”, the “Peptide exchange” value was ““+++” (≥50=+++)”. “48 (LLDENGVLKL; listed as Homo sapiens) [compound 48]” was tested, and the “Peptide exchange” value was ““+++” (≥50=+++)”. In the case of “49 (LLDGFPRTV; listed as Homo sapiens) [compound 49]”, the “Peptide exchange” value is reported as ““++” (≥20%=++)”. “50 (LLFGSDGYYV; listed as Homo sapiens) [compound 50]” was tested, and the “Peptide exchange” value was ““+++” (≥50=+++)”. With “51 (LLGPAGARA; listed as Homo sapiens) [compound 51]” the “Peptide exchange” value was ““++” (≥20%=++)”. For “52 (LLSDPIPEV; listed as Homo sapiens) [compound 52]”, the “Peptide exchange” value was ““+++” (≥50=+++)”. With “53 (LLWDPSTGKQV; listed as Homo sapiens) [compound 53]” the “Peptide exchange” value was ““+++” (≥50=+++)”. With “54 (LTQPGPIASA; listed as Homo sapiens) [compound 54]” the “Peptide exchange” value was ““+++” (≥50=+++)”. “55 (NLAPAPLNA; listed as Homo sapiens) [compound 55]” was tested, and the “Peptide exchange” value was ““++” (≥20%=++)”. For “56 (NLIGVTAEL; listed as Homo sapiens) [compound 56]”, the “Peptide exchange” value was ““++” (≥20%=++)”. “57 (RLSELGITQA; listed as Homo sapiens) [compound 57]” was tested, and the “Peptide exchange” value was ““+++” (≥50=+++)”. In the case of “58 (RQYPWGVVQV; listed as Homo sapiens) [compound 58]”, the “Peptide exchange” value is reported as ““++” (≥20%=++)”. In the case of “59 (SLSESFFMV; listed as Homo sapiens) [compound 59]”, the “Peptide exchange” value is reported as ““+++” (≥50=+++)”. For “60 (SLWEDYPHV; listed as Homo sapiens) [compound 60]”, the “Peptide exchange” value was ““++++” (>75%=++++)”. “61 (SMYDGLLQA; listed as Homo sapiens) [compound 61]” was tested, and the “Peptide exchange” value was ““++” (≥20%=++)”. In the case of “62 (SVFPGARLL; listed as Homo sapiens) [compound 62]”, the “Peptide exchange” value is reported as ““+” (≥10%=+)”.
